Measured values reported in patent US9957299B2, “Peptidomimetic macrocycles” (AILERON THERAPEUTICS, INC., priority 2010, dated 2018).
Numbered stars: 1 amine (or outer) side, 2 acyl side, 3 side chain; on linkers, the order of the positions; unused ones are H or OH. Bridge positions count the residues as written; N and C are the ends. Square brackets hold non-standard residues; d marks the D form. Peptide text beside a SMILES is read from it. X2 = C[C@@](Cc1c[nH]c2cc(Cl)ccc12)(N[*:1])C(=O)[*:2]; R8 = C=CCCCCCC[C@@](C)(N)C(=O)O; S5 = C=CCCC[C@](C)(N)C(=O)O; Nle = CCCC[C@H](N)C(=O)O

Experiment: circular dichroism
Conditions: aqueous, '0% TFE' (buffer not stated; general: 50 mM potassium phosphate pH 7 or water); pH ns; ns °C; 25-50 uM (general text)

| Compound | helicity [%] |
| --- | --- |
| CC(=O)N[C@@H](CCC(N)=O)C(=O)N[C@@H](CO)C(=O)N[C@@]1(C)CCCCCCCCC2(CCCCCCCCCCC[C@@](C)(C(=O)N[C@@H](CCC(N)=O)C(=O)N[C@@H](CC(N)=O)C(N)=O)NC(=O)[C@H](CC(C)C)NC(=O)[C@H](CC(C)C)NC(=O)[C@H](CCCNC(=N)N)NC(=O)[C@H](Cc3c[nH]c4ccccc34)NC(=O)[C@H](CC(C)C)NC(=O)[C@H](CC(N)=O)NC2=O)NC(=O)[C@H](Cc2ccccc2)NC(=O)[C@H]([C@@H](C)O)NC(=O)[C@H](CCC(N)=O)NC1=O (some centres unmarked) | 96 |
| CC(=O)N[C@@H](CCC(N)=O)C(=O)N[C@H](C(=O)N[C@@H](Cc1ccccc1)C(=O)N[C@]1(C)CCCCCCC=CCCC[C@@](C)(C(=O)N[C@@H](CO)C(N)=O)NC(=O)[C@H](CC(C)C)NC(=O)[C@H](CCC(N)=O)NC(=O)[C@H](CO)NC(=O)[C@H](Cc2c[nH]c3ccccc23)NC(=O)[C@H](Cc2c[nH]c3ccccc23)NC(=O)[C@H](Cc2c[nH]cn2)NC1=O)[C@@H](C)O (Ac-QTF[R8]HWWSQL[S5]S-NH2; staple 4-11) | 21.6 |
| CC(=O)N[C@@H](CCC(N)=O)C(=O)N[C@@H](CO)C(=O)N[C@]1(C)CCCC=CCCCC2(CCCC=CCCC[C@@](C)(C(=O)N[C@@H](CC(C)C)C(=O)N[C@@H](CC(C)C)C(=O)NC(C)(C)C(=O)N[C@@H](CCC(N)=O)C(=O)N[C@@H](CC(N)=O)C(N)=O)NC(=O)[C@H](Cc3c[nH]c4ccccc34)NC(=O)[C@H](CC(C)C)NC(=O)[C@H](CC(N)=O)NC2=O)NC(=O)[C@H](Cc2ccccc2)NC(=O)[C@H]([C@@H](C)O)NC(=O)[C@H](CCC(N)=O)NC1=O (some centres unmarked) | 0 |
| CC(=O)N[C@@H](CCC(N)=O)C(=O)N[C@@H](CO)C(=O)N[C@@H](CCC(N)=O)C(=O)N[C@@H](CCC(N)=O)C(=O)N[C@H](C(=O)N[C@@H](Cc1ccccc1)C(=O)N[C@@H]1CCCCCCC=CCCC[C@@H](C(=O)N[C@@H](CCC(N)=O)C(=O)N[C@@H](CC(N)=O)C(N)=O)NC(=O)[C@H](CC(C)C)NC(=O)[C@H](CC(C)C)NC(=O)[C@H](CCCNC(=N)N)NC(=O)[C@H](Cc2c[nH]c3ccccc23)NC(=O)[C@H](CC(C)C)NC(=O)[C@H](CC(N)=O)NC1=O)[C@@H](C)O | 50.5 |
| CC(=O)N[C@@H](CCC(N)=O)C(=O)N[C@@H](CO)C(=O)N[C@@H](CCC(N)=O)C(=O)N[C@@H](CCC(N)=O)C(=O)N[C@H](C(=O)N[C@@H](Cc1ccccc1)C(=O)N[C@]1(C)CCCCCCCCCCC[C@@](C)(C(=O)N[C@@H](CCC(N)=O)C(=O)N[C@@H](CC(N)=O)C(N)=O)NC(=O)[C@H](CC(C)C)NC(=O)[C@H](CC(C)C)NC(=O)[C@H](CCCNC(=N)N)NC(=O)[C@H](Cc2c[nH]c3cc(Cl)ccc23)NC(=O)[C@H](CC(C)C)NC(=O)[C@H](CC(N)=O)NC1=O)[C@@H](C)O | 92.4 |
| CC(=O)N[C@]1(C)CCCCCCCCCCC[C@@](C)(C(=O)N[C@@H](CC(C)C)C(=O)N[C@@H](Cc2c[nH]c3ccccc23)C(=O)N[C@@H](CCCNC(=N)N)C(=O)N[C@@H](CC(C)C)C(=O)N[C@@H](CC(C)C)C(=O)NC(C)(C)C(=O)N[C@@H](CCC(N)=O)C(=O)N[C@@H](CC(N)=O)C(N)=O)NC(=O)[C@H](CO)NC(=O)[C@H](Cc2ccccc2)NC(=O)[C@H]([C@@H](C)O)NC(=O)[C@H](CCC(N)=O)NC(=O)[C@H](CCC(N)=O)NC(=O)[C@H](CO)NC1=O | 66.7 |
| Ac-TSFAEYWNLLSP-NH2 | 6.8 |
| CC(=O)N[C@@H](CC(C)C)C(=O)N[C@H](C(=O)N[C@@H](Cc1ccccc1)C(=O)N[C@]1(C)CCCCCCCCCCC[C@@](C)(C(=O)N[C@@H](CO)C(N)=O)NC(=O)[C@H](CC(C)C)NC(=O)[C@H](CCC(N)=O)NC(=O)[C@H](CCCNC(=N)N)NC(=O)[C@H](Cc2c[nH]c3cc(Cl)ccc23)NC(=O)[C@H](Cc2ccc(O)cc2)NC(=O)[C@H](Cc2c[nH]cn2)NC1=O)[C@@H](C)O | 74.2 |
| CCCC[C@H](NC(C)=O)C(=O)N1CCC[C@H]1C(=O)N[C@@H](CCCNC(=N)N)C(=O)N[C@@H](Cc1ccccc1)C(=O)N[C@]1(C)CCCCCCC=CCCC[C@@](C)(C(=O)N[C@@H](CCC(N)=O)C(=O)N[C@@H](CC(N)=O)C(N)=O)NC(=O)[C@H](CC(C)C)NC(=O)[C@H](CC(C)C)NC(=O)[C@H](CCCNC(=N)N)NC(=O)[C@H](Cc2c[nH]c3ccccc23)NC(=O)[C@H](Cc2ccc(O)cc2)NC(=O)[C@H](CC(N)=O)NC1=O (Ac-[Nle]PRF[R8]NYWRLL[S5]QN-NH2; staple 5-12) | 62.6 |
| CC(=O)N[C@@H](C)C(=O)N[C@@H](C)C(=O)N[C@@H](C)C(=O)N[C@@H](CCCNC(=N)N)C(=O)N[C@@H](C)C(=O)N[C@@H](C)C(=O)N[C@]1(C)CCCCCCC=CCCC[C@@](C)(C(=O)N[C@@H](C)C(=O)N[C@@H](C)C(N)=O)NC(=O)[C@H](C)NC(=O)[C@H](C)NC(=O)[C@H](CCCNC(=N)N)NC(=O)[C@H](C)NC(=O)[C@H](C)NC(=O)[C@H](C)NC1=O (Ac-AAARAA[R8]AAARAA[S5]AA-NH2; staple 7-14) | 131 |
| CC(=O)N[C@H](C(=O)N[C@@H](CO)C(=O)N[C@@H](Cc1ccccc1)C(=O)N[C@]1(C)CCCCCCCCCCC[C@@](C)(C(=O)N2CCC[C@H]2C(N)=O)NC(=O)[C@H](CC(C)C)NC(=O)[C@H](CC(C)C)NC(=O)[C@H](CC(N)=O)NC(=O)[C@H](Cc2c[nH]c3ccccc23)NC(=O)[C@H](Cc2ccc(O)cc2)NC(=O)[C@H](CCC(N)=O)NC1=O)[C@@H](C)O | 2.6 |
| Ac-QTFEHWWSQLLS-NH2 | 21.6 |
| CC(=O)N[C@@H](CCCNC(=N)N)C(=O)N[C@@H](CO)C(=O)N[C@@H](CCC(N)=O)C(=O)N[C@@H](CCC(N)=O)C(=O)N[C@H](C(=O)N[C@@H](Cc1ccccc1)C(=O)N[C@]1(C)CCCCCCC=CCCC[C@@](C)(C(=O)N[C@@H](CCC(N)=O)C(=O)N[C@@H](CC(N)=O)C(N)=O)NC(=O)[C@H](CC(C)C)NC(=O)[C@H](CC(C)C)NC(=O)[C@H](CCCNC(=N)N)NC(=O)[C@H](Cc2c[nH]c3ccccc23)NC(=O)[C@H](CC(C)C)NC(=O)[C@H](CC(N)=O)NC1=O)[C@@H](C)O (Ac-RSQQTF[R8]NLWRLL[S5]QN-NH2; staple 7-14) | 62.3 |
| CC(=O)N[C@@H](CCC(N)=O)C(=O)N[C@@H](CO)C(=O)N[C@@H](CCC(N)=O)C(=O)N[C@@H](CCC(N)=O)C(=O)N[C@H](C(=O)N[C@@H](Cc1ccccc1)C(=O)N[C@]1(C)CCCCCCCCCCC[C@@](C)(C(=O)N[C@@H](CCC(N)=O)C(=O)N[C@@H](CC(N)=O)C(N)=O)NC(=O)[C@H](CC(C)C)NC(=O)[C@H](CC(C)C)NC(=O)[C@H](CCCNC(=N)N)NC(=O)[C@](C)(Cc2c[nH]c3cc(Cl)ccc23)NC(=O)[C@H](CC(C)C)NC(=O)[C@H](CC(N)=O)NC1=O)[C@@H](C)O | 62.4 |
| CC(=O)N[C@@H](CCC(N)=O)C(=O)N[C@@H](CO)C(=O)N[C@@H](CCC(N)=O)C(=O)N[C@@H](CCC(N)=O)C(=O)N[C@H](C(=O)N[C@@H](Cc1ccccc1)C(=O)N[C@]1(C)CCCCCCC=CCCC[C@@](C)(C(=O)N[C@@H](CCC(N)=O)C(=O)N[C@@H](CC(N)=O)C(N)=O)NC(=O)[C@H](CC(C)C)NC(=O)[C@H](CC(C)C)NC(=O)[C@H](CCCNC(=N)N)NC(=O)[C@](C)(Cc2c[nH]c3cc(Cl)ccc23)NC(=O)[C@H](CC(C)C)NC(=O)[C@H](CC(N)=O)NC1=O)[C@@H](C)O (Ac-QSQQTF[R8]NL[X2]RLL[S5]QN-NH2; staple 7-14) | 60.9 |
| CC(=O)N[C@@H](CC(C)C)C(=O)N[C@H](C(=O)N[C@@H](Cc1ccccc1)C(=O)N[C@]1(C)CCCCCCC=CCCC[C@@](C)(C(=O)N[C@@H](CO)C(N)=O)NC(=O)[C@H](CC(C)C)NC(=O)[C@H](CCC(N)=O)NC(=O)[C@H](CCCNC(=N)N)NC(=O)[C@H](Cc2c[nH]c3ccccc23)NC(=O)[C@H](Cc2ccc(O)cc2)NC(=O)[C@H](Cc2c[nH]cn2)NC1=O)[C@@H](C)O (Ac-LTF[R8]HYWRQL[S5]S-NH2; staple 4-11) | 59.5 |
| Ac-MPRFMDYWEGLN-NH2 | 7.5 |
| CCCC[C@@H]1NC(=O)[C@H](CCCNC(=N)N)NC(=O)[C@H](Cc2c[nH]c3ccccc23)NC(=O)[C@H](CC(C)C)NC(=O)[C@H](CC(N)=O)NC(=O)[C@](C)(NC(=O)[C@H](Cc2ccccc2)NC(=O)[C@@H](NC(=O)[C@H](CCC(N)=O)NC(=O)[C@H](CCC(N)=O)NC(=O)[C@H](CO)NC(=O)[C@H](CCC(N)=O)NC(C)=O)[C@@H](C)O)CCCCCCCCCCC[C@@](C)(C(=O)N[C@@H](CCC(N)=O)C(=O)N[C@@H](CC(N)=O)C(N)=O)NC(=O)[C@H](CC(C)C)NC1=O | 84.7 |
| CCCC[C@H](NC(C)=O)C(=O)N1CCC[C@H]1C(=O)N[C@@H](CCCNC(=N)N)C(=O)N[C@@H](Cc1ccccc1)C(=O)N[C@]1(C)CCCCCCCCCCC[C@@](C)(C(=O)N[C@@H](CCC(N)=O)C(=O)N[C@@H](CC(N)=O)C(N)=O)NC(=O)[C@H](CC(C)C)NC(=O)[C@H](CC(C)C)NC(=O)[C@H](CCCNC(=N)N)NC(=O)[C@H](Cc2c[nH]c3ccccc23)NC(=O)[C@H](Cc2ccc(O)cc2)NC(=O)[C@H](CC(N)=O)NC1=O | 61.6 |
| CC(=O)N[C@@H](CC(C)C)C(=O)N[C@H](C(=O)N[C@@H](Cc1ccccc1)C(=O)N[C@]1(C)CCCCCCC=CCCC[C@@](C)(C(=O)N[C@@H](CO)C(=O)N[C@@H](C)C(N)=O)NC(=O)[C@H](CC(C)C)NC(=O)[C@H](CCC(N)=O)NC(=O)[C@H](C)NC(=O)[C@H](Cc2c[nH]c3ccccc23)NC(=O)[C@H](Cc2ccc(O)cc2)NC(=O)[C@H](Cc2c[nH]cn2)NC1=O)[C@@H](C)O | 80.8 |
| C=CCCCCCC[C@@](C)(NC(=O)[C@H](Cc1ccccc1)NC(=O)[C@@H](NC(=O)[C@H](CCC(N)=O)NC(=O)[C@H](CCC(N)=O)NC(=O)[C@H](CO)NC(=O)[C@H](CCC(N)=O)NC(C)=O)[C@@H](C)O)C(=O)N[C@@H](CC(N)=O)C(=O)N[C@@H](CC(C)C)C(=O)N[C@@H](Cc1c[nH]c2ccccc12)C(=O)N[C@@H](CCCNC(=N)N)C(=O)N[C@@H](CC(C)C)C(=O)N[C@@H](CC(C)C)C(=O)N[C@@](C)(CCCC=C)C(=O)N[C@@H](CCC(N)=O)C(=O)N[C@@H](CC(N)=O)C(N)=O | 55 |
| CC(=O)N[C@@H](CC(C)C)C(=O)N[C@H](C(=O)N[C@@H](Cc1ccccc1)C(=O)N[C@@H](CCC(=O)O)C(=O)N[C@@H](Cc1c[nH]cn1)C(=O)N[C@@H](Cc1ccc(O)cc1)C(=O)N[C@@H](Cc1c[nH]c2ccccc12)C(=O)N[C@@H](C)C(=O)N[C@@H](CCC(N)=O)C(=O)N[C@@H](CC(C)C)C(=O)N[C@H](C(=O)N[C@@H](CO)C(N)=O)[C@@H](C)O)[C@@H](C)O | -0.5 |
| Ac-QSQQTFSNLWRLLPQN-NH2 | 5 |
